Test results published in US20260193377A1 (FULL LIFE TECHNOLOGIES HK, published 2026).

Key:
[1] = target: T1, Human GUCY2C (captured on anti-human Fc capturing antibody, SPR) (human); test: SPR (Biacore T200), human GUCY2C captured via anti-human Fc, sdAb as analyte, 1:1 fit
T1 construct: also called human GCC; guanylyl cyclase C
Protocol: Anti-GCC sdAbs were diluted with 1×HBS-EP buffer. Human GUCY2C was captured on anti-human Fc capturing Ab-immobilized sCM5 chip. Then anti-GCC sdAb samples were injected with a flow rate of 10 μl/min for 180 sec, followed by dissociation for 800 sec. The binding curves were locally fitted with Biacore® T200 analysis software (BIAevaluation) using a 1:1 Langmuir binding model.

[2] = target: T2, GCC expressed on T84 cells (UniProt P25092 24-1073, limits assumed); test: flow cytometry on T84 cells expressing GCC, 300 nm [sic], PE-anti human Fc secondary; Blank 30.7
T2 construct: whole, on cells; also called guanylyl cyclase C; GUCY2C
Protocol: T84 cells expressing GCC were used to evaluate the binding affinity of the anti-GCC sdAbs. Briefly, 50 μL T84 cells at density of 3×10⁶ cells/mL were incubated with 50 μL anti-GCC sdAbs at 4° C. for 2 hours. After incubation, the cells were washed three times with 400 μL FACS buffer, resuspended with PE-anti human Fc 2nd antibody (eBioscience 12-4998-82, 1:1000 dilution) and incubated at 4° C. for 60 min. Then the cells were collected and subject to FACS analysis.

T1 sequence (P25092 24-430): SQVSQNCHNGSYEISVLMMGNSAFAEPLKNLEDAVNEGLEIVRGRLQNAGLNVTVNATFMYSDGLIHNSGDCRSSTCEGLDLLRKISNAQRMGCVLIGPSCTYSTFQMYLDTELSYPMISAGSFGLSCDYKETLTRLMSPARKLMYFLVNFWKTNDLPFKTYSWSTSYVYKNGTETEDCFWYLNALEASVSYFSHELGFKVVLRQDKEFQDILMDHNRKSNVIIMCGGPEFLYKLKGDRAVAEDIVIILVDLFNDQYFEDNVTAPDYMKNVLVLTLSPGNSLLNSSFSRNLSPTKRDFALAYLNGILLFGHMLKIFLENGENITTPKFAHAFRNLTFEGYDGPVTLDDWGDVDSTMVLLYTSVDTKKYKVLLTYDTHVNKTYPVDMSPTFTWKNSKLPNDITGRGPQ
T2 sequence (P25092 24-1073 limits assumed): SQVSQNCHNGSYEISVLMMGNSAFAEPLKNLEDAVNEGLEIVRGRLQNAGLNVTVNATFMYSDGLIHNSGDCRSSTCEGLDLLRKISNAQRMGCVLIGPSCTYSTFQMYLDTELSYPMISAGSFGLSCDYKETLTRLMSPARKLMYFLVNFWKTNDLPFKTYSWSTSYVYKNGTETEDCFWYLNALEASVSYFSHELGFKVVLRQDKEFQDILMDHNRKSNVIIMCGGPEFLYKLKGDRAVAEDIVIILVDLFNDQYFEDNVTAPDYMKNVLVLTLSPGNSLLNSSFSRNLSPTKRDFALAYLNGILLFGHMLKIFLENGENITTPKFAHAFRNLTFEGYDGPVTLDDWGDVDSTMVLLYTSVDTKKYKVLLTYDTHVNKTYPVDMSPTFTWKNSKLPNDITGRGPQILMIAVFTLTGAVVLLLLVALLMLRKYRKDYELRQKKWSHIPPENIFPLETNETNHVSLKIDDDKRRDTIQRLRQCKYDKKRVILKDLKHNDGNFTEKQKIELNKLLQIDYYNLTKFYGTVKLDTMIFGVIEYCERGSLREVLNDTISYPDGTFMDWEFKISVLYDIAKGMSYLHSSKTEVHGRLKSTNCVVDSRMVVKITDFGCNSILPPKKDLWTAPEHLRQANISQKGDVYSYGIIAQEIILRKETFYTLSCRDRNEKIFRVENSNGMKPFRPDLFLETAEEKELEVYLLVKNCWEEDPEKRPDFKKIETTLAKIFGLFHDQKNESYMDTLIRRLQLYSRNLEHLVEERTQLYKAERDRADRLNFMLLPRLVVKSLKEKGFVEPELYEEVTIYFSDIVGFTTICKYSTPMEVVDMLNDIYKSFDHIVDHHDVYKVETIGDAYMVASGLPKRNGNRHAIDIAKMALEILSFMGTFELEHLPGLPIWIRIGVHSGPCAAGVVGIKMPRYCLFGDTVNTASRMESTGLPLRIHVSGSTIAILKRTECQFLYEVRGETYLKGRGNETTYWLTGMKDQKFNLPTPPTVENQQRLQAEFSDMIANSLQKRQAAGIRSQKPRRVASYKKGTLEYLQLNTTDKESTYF

Binder	Kd [1] [nM]	koff [1] [s⁻¹]	kon [1] [M⁻¹ s⁻¹]	Geometric mean MFI [2]
anti-GCC single domain antibody SEQ ID NO. 8 (VHH, Alpaca-derived sdAb) VHH: EVDLVESGGGLVQPGGSLRLSCGASGFTFSHYAMSWVRQAPGKALEWVSDISSGGGITKYADSVKGRFTISRDDAQNTLYLQMNSLKPEDTAVYYCAKASAIGYLAYWMRNPVEYDTRGQGTLVTVSS	0.0259	6.7e-05	2.59e+06	669
anti-GCC single domain antibody SEQ ID NO. 9 (VHH, Alpaca-derived sdAb) VHH: QKQLVESGGGLVQPGGSLRLSCAASGETLSNYNIGWFRQAPGKEREGVSCISQIGFTNYADSVKGRFTLFRASAENTVYLQMNSLKPEDTAVYYCAVTGGRWASCSFLPLRQDFESWGQGTLVTVSS	0.116	0.00103	8.84e+06	447
anti-GCC single domain antibody SEQ ID NO. 7 (VHH, Alpaca-derived sdAb) VHH: QVQLVESGGGLVQPGGSLRLSCAASGSRFMTSSMGWYRQTPGKQREWVATATSSDSTLYADAVKGRFTISRDNAKNTVYLQMNSLKPQDTAVYYCFTTPPTFWGHGTQVTVSS	2.53	0.000395	156000	268
